Assay [1] concerns the target T1, YpTesB (TesB acyl-CoA thioesterase from Y. pestis) (Yersinia pestis, UniProt A0A3N4BCC7). As to conditions: 100 mM phosphate pH 8.0, 0.1 mM DTNB.
Assay [2] addresses T1, YpTesB (TesB acyl-CoA thioesterase from Y. pestis). As to conditions: 2.2 A; crystals grown with 1 mM octanoyl-CoA, sodium malonate pH 7.0; CoA between two adjacent chains, in two of four sites.
The target in assay [3] is TesB acyl-CoA thioesterase from Yersinia pestis (Yersinia pestis). Nature of the assay: AUC.
For assay [4] the target is unchanged. The assay is described as follows: SEC. (In gel filtration, larger molecules generally elute earlier.)
The target is the same in assay [5]. The assay is described as follows: crystal structure.
The target is the same in assay [6]. The assay is described as follows: small-angle X-ray scattering (SAXS).

A word on the stoichiometry N: it is the number of molecules, sites or subunits per partner or assembly.

On to `CCCCCCCCCC(=O)SCCNC(=O)CCNC(=O)[C@H](O)C(C)(C)COP(=O)(O)OP(=O)(O)OC[C@H]1O[C@@H](n2cnc3c(N)ncnc32)[C@H](O)[C@@H]1OP(=O)(O)O` [C10, decanoyl-CoA], for which the “DTNB assay of released thiol, 412 nm” value in assay [1] was “The highest activity was exhibited towards medium-chain acyl-CoAs (C6–C10)”.
Regarding `CC(C)(COP(=O)(O)OP(=O)(O)OC[C@H]1O[C@@H](n2cnc3c(N)ncnc32)[C@H](O)[C@@H]1OP(=O)(O)O)[C@@H](O)C(=O)NCCC(=O)NCCS` [CoA], the X-ray crystallography entry in assay [2] is “revealing the same quaternary arrangement of domains as the apo form with density for two CoA molecules”.
Regarding “TesB acyl-CoA thioesterase from Yersinia pestis (enzyme)”, the stoichiometry N in assay [3], in assay [4], in assay [5] and in assay [6] was 4 each time.
